According to the supplement of paper PMC7877785:
± gives the uncertainty stated by the source.

Test: self-splicing fitness, log relative to wild type (ln ratio); higher = more splicing; Tetrahymena group I intron in knt gene, E. coli kanamycin selection, DiMSum; sequences stand for … in CUCUCU…GGAGGGAAAAGUUAUCAGGCAUGCACCUGGUAGCUAGUCUUUAAACCAAUAGAUUGCAUCGGUUUAAAAGGCAAGACCGUCAAAUUGCGGGAAAGGGGUCAACAGCCGUUCAGUACCAAGUCUCAGGGGAAACUUUGAGAUGGCCUUGCAAAGGGUAUGGUAAUAAGCUGACGGACAUGGUCCUAACCACGCAGCCAAGUCCUAAGUCAACAGAUCUUCUGUUGAUAUGGAUGCAGUUCACAGACUAAAUGUCGGUCGGGGAAGAUGUAUUCUUCUCAUAAGAUAUAGUCGGACCUCUCCUUAAUGGGAGCUAGCGGAUGAAGUGAUGCAACACUGGAGCCGCUGGGAACUAAUUUGUAUGCGAAAGUAUAUUGAUUAGUUUUGGAGUACUCGUGGUCG
Outline: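 Pooled colonies went to amplicon sequencing on an Illumina HiSeq 2500 after six replicate transformations. The plates were LB agar with 100 μg/mL carbenicillin, 50 μM IPTG and 0.2% rhamnose, with or without 25 μg/mL kanamycin, incubated overnight at 37°C or 30°C. The E. coli BL21(DE3) library had all eight P1ex-region intron nucleotides randomised, the intron placed in the knt kanamycin-resistance gene on pET-22b(+). DiMSum fitness is the error-weighted combination of replicate fold changes, kanamycin against none, normalised to wild type.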

| Sequence | self-splicing fitness (ln) (30 °C) | self-splicing fitness (ln) (37 °C) |
| --- | --- | --- |
| AGAGAGCAAUAUUACGACUU | -1.7 ± 0.15 | -0.522 ± 0.15 |
| CACAAGCAAUAUUACGCCAU | -4 ± 0.23 | -3.48 ± 0.25 |
| UCUAAGCAAUAUUACGUGCG | -0.493 ± 0.1 | -0.581 ± 0.15 |
| ACGUAGCAAUAUUACGGACU | -2.66 ± 0.3 | -0.29 ± 0.24 |
| ACUGAGCAAUAUUACGGCUA | -1.61 ± 0.15 | -1.63 ± 0.16 |
| AACCAGCAAUAUUACGUGGC | -3.06 ± 0.12 | -2.99 ± 0.17 |
| CUCCAGCAAUAUUACGGCAU |  | -2.56 ± 0.39 |
| UAUGAGCAAUAUUACGGUUU | -3.7 ± 0.2 | -2.43 ± 0.21 |
| CCACAGCAAUAUUACGAAGU | -3.69 ± 0.18 | -3.17 ± 0.21 |
| ACCUAGCAAUAUUACGGAGU | -3.61 ± 0.13 | -2.39 ± 0.12 |
| GAGUAGCAAUAUUACGAAAA | -2.8 ± 0.38 |  |
| UUAAAGCAAUAUUACGCAUA | -0.633 ± 0.072 | 0.164 ± 0.11 |
| CAGAAGCAAUAUUACGCCAC |  | -0.904 ± 0.4 |
| CGCAAGCAAUAUUACGACCG | -1.4 ± 0.11 | -0.441 ± 0.14 |
| AUGAAGCAAUAUUACGAGGU | -3.32 ± 0.15 | -2.07 ± 0.18 |
| CCGGAGCAAUAUUACGUUUU | -3.67 ± 0.3 | -2.6 ± 0.38 |
| CACCAGCAAUAUUACGACCG | -0.000395 ± 0.066 | 0.12 ± 0.089 |
| ACGUAGCAAUAUUACGGCUG | -3.21 ± 0.28 | -1.83 ± 0.25 |
| CUCCAGCAAUAUUACGACUU | -3.85 ± 0.26 | -2.15 ± 0.19 |
| GCUGAGCAAUAUUACGGGGU |  | -2.36 ± 0.28 |
| UCGAAGCAAUAUUACGUCUG | -0.0903 ± 0.069 | -0.194 ± 0.077 |
| CGAGAGCAAUAUUACGGCCU | -2.61 ± 0.39 | -2.63 ± 0.44 |
| UUGGAGCAAUAUUACGCGUA | -3.77 ± 0.28 | -2.13 ± 0.23 |
| UACUAGCAAUAUUACGCCGG | -1.68 ± 0.18 | -0.8 ± 0.17 |
| UUGUAGCAAUAUUACGGAUG | -1.9 ± 0.12 | -1.56 ± 0.15 |
| UUUCAGCAAUAUUACGCGUG | -1.02 ± 0.082 | -0.508 ± 0.094 |

| Sequence | self-splicing fitness (ln) (30 °C) | self-splicing fitness (ln) (37 °C) |
| --- | --- | --- |
| CGGCAGCAAUAUUACGAGAA | -3.01 ± 0.19 | -2.32 ± 0.19 |
| UACAAGCAAUAUUACGGACG | -0.321 ± 0.075 | 0.44 ± 0.097 |
| UUAGAGCAAUAUUACGUCUG | -0.606 ± 0.11 | -0.672 ± 0.12 |
| CAUAAGCAAUAUUACGCACG | -1.64 ± 0.1 | -0.299 ± 0.13 |
| GGAUAGCAAUAUUACGGGGG | -2.14 ± 0.19 | -1.8 ± 0.35 |
| GGGAAGCAAUAUUACGUAUU | -1.87 ± 0.13 | -1.58 ± 0.15 |
| AAAUAGCAAUAUUACGGCGA | -0.48 ± 0.11 | -0.0146 ± 0.12 |
| GUCAAGCAAUAUUACGCGCA | -0.483 ± 0.097 | -0.0303 ± 0.11 |
| GAAUAGCAAUAUUACGCCCA | -0.91 ± 0.17 | -0.732 ± 0.24 |
| GAAUAGCAAUAUUACGGUAG | -2.88 ± 0.12 | -2.22 ± 0.16 |
| AUCUAGCAAUAUUACGGAAU | -1.87 ± 0.16 | -2.1 ± 0.19 |
| AUGGAGCAAUAUUACGCGUC | -4.02 ± 0.18 | -2.79 ± 0.15 |
| GGCAAGCAAUAUUACGAGGC | -0.0179 ± 0.3 |  |
| AAAAAGCAAUAUUACGAUAU | -0.534 ± 0.061 | -0.545 ± 0.079 |
| AGUCAGCAAUAUUACGUAAU | -1.16 ± 0.062 | -0.387 ± 0.088 |
| ACUAAGCAAUAUUACGUUAG | -2.59 ± 0.13 | -2.1 ± 0.17 |
| CAGCAGCAAUAUUACGGCAC | -3.25 ± 0.15 | -0.851 ± 0.17 |
| UCCAAGCAAUAUUACGGAGC | -3.35 ± 0.37 | -2.44 ± 0.26 |
| GGUCAGCAAUAUUACGUGAA | -0.356 ± 0.086 | 0.381 ± 0.096 |
| AGUAAGCAAUAUUACGUAGC | -4.37 ± 0.42 | -3.1 ± 0.47 |
| GCAUAGCAAUAUUACGGCCA | -1.05 ± 0.19 | -1.17 ± 0.21 |
| AAACAGCAAUAUUACGUGGU | -4.06 ± 0.14 | -2.31 ± 0.15 |
| CACAAGCAAUAUUACGGAGG | -2.14 ± 0.089 | -0.826 ± 0.1 |
| GCAUAGCAAUAUUACGGAUG | -3.15 ± 0.15 | -0.657 ± 0.13 |
| GGAAAGCAAUAUUACGAAAA | -1.04 ± 0.48 |  |
| GUGAAGCAAUAUUACGACUA | -0.0623 ± 0.096 | 0.462 ± 0.14 |

| Sequence | self-splicing fitness (ln) (30 °C) | self-splicing fitness (ln) (37 °C) |
| --- | --- | --- |
| UGAAAGCAAUAUUACGCAUG | -0.902 ± 0.079 | -0.484 ± 0.091 |
| CAGCAGCAAUAUUACGGUCG | 0.264 ± 0.053 | 0.584 ± 0.08 |
| UUGGAGCAAUAUUACGAAUC |  | -2.58 ± 0.5 |
| CUAAAGCAAUAUUACGGGCU | -4.47 ± 0.18 | -2.59 ± 0.16 |
| GUACAGCAAUAUUACGAUGA | -1.87 ± 0.097 | -0.889 ± 0.11 |
| AAGUAGCAAUAUUACGACCC | 0.421 ± 0.3 | 0.212 ± 0.29 |
| AGCAAGCAAUAUUACGUGGC | -2.83 ± 0.15 | -3.3 ± 0.21 |
| GGUUAGCAAUAUUACGGUCA | 0.387 ± 0.31 | -1.03 ± 0.12 |
| GCAUAGCAAUAUUACGUACA | -1.56 ± 0.15 | -0.421 ± 0.13 |
| UAAAAGCAAUAUUACGGACC | -1.44 ± 0.2 | -1.46 ± 0.29 |
| UAAGAGCAAUAUUACGUUUA | -2.31 ± 0.12 | -1.36 ± 0.13 |
| UCGAAGCAAUAUUACGAGAA | -1.94 ± 0.41 | -1.23 ± 0.3 |
| CUCGAGCAAUAUUACGAGGU | -3.53 ± 0.24 | -2.58 ± 0.21 |
| GUACAGCAAUAUUACGGCAA | -1.59 ± 0.15 | -1.32 ± 0.12 |
| GAUAAGCAAUAUUACGGCCU | -0.624 ± 0.08 | -0.592 ± 0.11 |
| AGCCAGCAAUAUUACGGCUU | -4.74 ± 0.41 | -2.89 ± 0.21 |
| CAUGAGCAAUAUUACGCUAC |  | -2.29 ± 0.49 |
| CUUGAGCAAUAUUACGCAAU | -3.44 ± 0.32 | -2.77 ± 0.38 |
| CACGAGCAAUAUUACGAAGA | -2.89 ± 0.22 | -3.38 ± 0.27 |
| GGCUAGCAAUAUUACGCAUC | 0.346 ± 0.16 | 0.785 ± 0.17 |
| GGAAAGCAAUAUUACGACCA | -0.87 ± 0.11 | -0.318 ± 0.14 |
| GGUAAGCAAUAUUACGUGUG | -2.8 ± 0.16 | -2.61 ± 0.16 |
| GCGUAGCAAUAUUACGCGAU | -2.83 ± 0.26 | -2.31 ± 0.26 |
| UGAAAGCAAUAUUACGUUAA | -1.45 ± 0.089 | -0.938 ± 0.09 |
| UAGUAGCAAUAUUACGACCA | -0.4 ± 0.15 | 0.221 ± 0.17 |
